The target of assay [1] is gp120 of HIV-1 primary isolate BR004 (clade C) (HIV-1 strain BR004). The experiment in a line: cell-based or functional assay.
In assay [2] the target is gp120 of HIV-1 primary isolate SF-162 (clade B) (HIV-1 strain SF-162). The assay can be described thus: cell-based or functional assay.

On to IgG clone b12 (antibody), for which, in assay [1], the IC50, HIV-1 neutralization (p24, PBMC hosts) (µg Ab fragment/ml) turned out to be 9 and the IC90, HIV-1 neutralization (p24, PBMC hosts) (µg Ab fragment/ml) came out at 333. In assay [2], the IC50, HIV-1 neutralization (p24, PBMC hosts) (µg Ab fragment/ml) turned out to be 1.1 and the IC90, HIV-1 neutralization (p24, PBMC hosts) (µg Ab fragment/ml) came out at 14.1.

The values are drawn from patent publication US8246957.
